± gives the uncertainty stated by the source.

A short description of the data set: amyloid nucleation score (Sup35N fusion, yeast selection) (log enrichment); library NNK1; higher = more nucleation; inactive = no reads after selection. The procedure, abridged:
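Plasmid inserts were Illumina-sequenced at input and output from psi-negative yeast expressing Sup35N fused to peptides of 20 random codons. The yeast were induced with 100 μM copper sulfate for 24 hours and grown 7 days at 30°C on medium lacking adenine and uracil, and sequences with under 100 input reads were excluded. Nucleation score is the DiMSum log enrichment of output over input reads, centred on the mode score of non-aggregating sequences.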

Substance CHVQMSFNGLRYNFHTIFFI gave an amyloid nucleation score of 1.2 ± 0.74. To ATWTAWRHVAHFWPWAHAKS belongs 0.936 ± 0.56; to EVASGVCTRIRLYSRCEWKG, 2.84 ± 0.091.

For KHCTRFRVRRMYYDVTKILL, the amyloid nucleation score result is “inactive”. To ARYHYWGGERASSLNKVSQW belongs 0.699 ± 1; to GNANVKCGVRAISDNRARRI, 0.003 ± 0.43; to GIWSNCKYVFSGIMSSYMVS, 0.739 ± 0.16. To PFNFIPFAYRLYRKTYRTSH belongs 0.165 ± 0.46; to VAVTITYAICDTLILFIEGG, 4.08 ± 0.1. To RSVPCPYYGLL belongs 0.033 ± 0.66; to RLGHDRIFSIRNSQS, -0.287 ± 0.58; to RNWCIMFLTYVL, 3.74 ± 0.083. The substance GQLLCWVASNYEGFNWVYKI gave an amyloid nucleation score of -0.161 ± 0.53.

The substance WFTPNVWAGGVWHHVLGFGG showed an amyloid nucleation score of -0.93 ± 0.65. To TRWWGPLQFVYFPD belongs -0.17 ± 0.68; to TFRFSGYSLNISFKNCEHYV, “inactive”; to KGFLRFG, 0.333 ± 0.38. To GLSGTSALPPGIS belongs 0.318 ± 0.79; to YCQSSWMSSFSTEFHKARLN, 0.43 ± 0.39. The figure for YVIFCTPSFFIL is 5.52 ± 0.068. In the case of TFGINRYNFRISARIGQVCI, the amyloid nucleation score was -0.284 ± 0.22. The figure for RLVLNCRYNYCSREFVFYAV is 0.292 ± 0.35. To DKHSLKILYKCGHPSTDNGQ belongs 1.51 ± 0.5. The entry for DSRYYTDADALVDR is “inactive”; for VSFNTFYRRSFPFQLRTTSV it is 0.329 ± 0.29; for LFYSNMIVTVSRSVVRMRGA it is 0.659 ± 0.79. In turn, NSRGAQVCDICSIRMFNCCP had an amyloid nucleation score of 7.149 ± 0.048. To RVLRQMKSIC belongs -0.44 ± 0.83; to RLQSKLLHCS, -0.169 ± 0.45; to VREYMTFQDMYLSGVSTVTL, 1.08 ± 0.61. To RCSNLGFKFWR belongs -0.332 ± 0.39. To ALLIAY belongs -0.992 ± 0.59.

Consider NILCTLPSIGILSAI, for which the amyloid nucleation score is -0.249 ± 0.37.

Substance WNLATMVADRSPRNKLWTRP yielded an amyloid nucleation score of 0.397 ± 0.97.

For SKVVGGESKVQ, the amyloid nucleation score came to 1.05 ± 0.6. ASFSNCWG came in with an amyloid nucleation score of 0.486 ± 0.32.

Consider DHWSASIVIPVWSERNNSFG, for which the amyloid nucleation score is -0.373 ± 1.4. The entry for NSCFQSSIYVTSYTWECSP is “inactive”; for CILLVFEDMWVSIV it is -0.53 ± 0.36; for FFCSNDLSFVAELILINRQV it is 0.87 ± 0.58. HLVRRLYSKWMQT had an amyloid nucleation score of -0.711 ± 0.96. To YFKSWTLNMCVGIKNK belongs 4.66 ± 0.056; to CRYPWRH, -0.042 ± 0.6; to LGNLM, -0.109 ± 0.95. To SMFRVYYSGGQLQ belongs 4.75 ± 0.058; to SNLLTRSPLMLSSIIMVMNC, -0.133 ± 0.75; to WLDRGW, 0.282 ± 0.33. Regarding ESRCRTLKIVLCCGFLSDWP, the amyloid nucleation score result was “inactive”. To ACDVVIRTWITKDTKGFYRA belongs 0.488 ± 0.29; to LRREVINWDQRFSFLKSFTW, 2.89 ± 0.15.

As for GQAWKDAVQNYDMLAYMLKG, the amyloid nucleation score was -0.375 ± 0.54. In turn, KNCPALRSFSSKDSSSFVWS had an amyloid nucleation score of -0.23 ± 0.43. The figure for IIWRDNNTPYD is 1.96 ± 0.7.

As to RTRSGRVICNGFPRYSTTAA, the amyloid nucleation score entry is “inactive”. To FNYEGYNMSCCGYRQFMEFG belongs 5.87 ± 0.073; to CSYRWVELLCSC, 3.93 ± 0.11. The figure for QTVGKVDVVDCLVLVVRLTI is -0.003 ± 0.57; for EVRSSFYPSHYYRALRDL it is -1.37 ± 2.4; for GKRIYPWVLNRSH it is -0.209 ± 0.28. To QVHPPMTTGPC belongs 0.291 ± 0.53; to LFMNCLILRMFTCAFHNSSE, 6.39 ± 0.078. As for FKSILRYPADRKMS, the amyloid nucleation score amounted to 0.997 ± 0.76. The figure for PVRQSL is 0.343 ± 0.33. The figure for FFMLFRCGF is 0.333 ± 0.87; for VGHKNSYGRFKDIWIWLWYQ it is -0.009 ± 1.4; for NGGMGSPLDYQRWSDGDQVG it is -0.365 ± 1.1. The entry for NGFRSVQVLGKGAVMCVNCR is “inactive”; for FNFRYPKDRGVSIVGCNFPM it is -0.065 ± 0.51; for NKMIKWASQDGCRKVRFSEE it is -0.427 ± 0.4.

For the substance DMRYSRSCYTGCTDYYTCLG, the amyloid nucleation score is -0.546 ± 0.4.

EELTAYMSLDMQLCRNRAAM showed an amyloid nucleation score of 0.055 ± 0.55. In turn, IYTLGKKGMNHHDVGQWLFT returned an amyloid nucleation score of 1.55 ± 0.5. The figure for YYGQII is 1.54 ± 0.38; for KRSNSFL it is 0.319 ± 0.27. Substance GSTNERYAKNGTS registered an amyloid nucleation score of 0.32 ± 0.68. As to RITAVRGVCLFSADSV, the amyloid nucleation score is -0.175 ± 0.26. Take YFDKKLGLS: the amyloid nucleation score result was “inactive”. The figure for SFHWQKGSSSYTVSPHSAKL is 0.239 ± 0.26; for FYMRSFLFDFQLFHVVGIWF it is -0.929 ± 0.39. The figure for YAMNPHTDGPCTFNWVFYGK is 8.094 ± 0.056; for GVVCCTANF it is 5.68 ± 0.065. The figure for DFSSNDGWV is 0.444 ± 0.47; for MDSYLSSNCKCDTLDVGGNE it is -1.17 ± 1.6; for CMWWSCGSNIVYVALLMWCH it is -0.191 ± 0.4.

SGGDFQCTRHMSVDLGLPVS showed an amyloid nucleation score of 0.428 ± 0.64. The figure for LLVVVTLAI is 0.89 ± 0.51; for LREECKVAWYLNGDCVVYCK it is “inactive”; for DHHQGMM it is -0.213 ± 1.2.

For SMTLMWTTPSSYIAWI, the amyloid nucleation score was -0.792 ± 0.48. For the substance DKFLRWVNNVCFKSWTAIAP, the amyloid nucleation score was found to be 0.609 ± 0.57. As to MFYVPIGPLSRCWRTALGFI, the amyloid nucleation score was -0.786 ± 0.85. LVHPQVSVGS returned an amyloid nucleation score of 0.632 ± 0.74.

In turn, VVMEMINFHPSTLCSILQ registered an amyloid nucleation score of 5.07 ± 0.11. The substance CIGRCMWI returned an amyloid nucleation score of 1.81 ± 0.61. The figure for GLFNSDRVNQWPPGPCRDYV is 0.5 ± 0.28; for YMGELFTE it is 2.45 ± 0.15; for PLHAANDLSCPENLDVWYHE it is -0.696 ± 0.83. NFLMSKTGLTPHR: the amyloid nucleation score turned out to be 0.07 ± 0.51. LYFKSSRCR gave an amyloid nucleation score of 1.12 ± 0.52.

In turn, HRLRLSVVRAIYDTQIHQRA yielded an amyloid nucleation score of -0.043 ± 0.34. To HHPYFSAMM belongs 0.22 ± 0.54. DGGICYD had an amyloid nucleation score of 0.733 ± 0.31. VLLYKSLAV yielded an amyloid nucleation score of 0.964 ± 0.15. Substance STKKLYTILRHWSYDFAESG had an amyloid nucleation score of -0.509 ± 1.7. LTYLWFT showed an amyloid nucleation score of -0.095 ± 0.27. Regarding HAFFHYWPVCQWV, the amyloid nucleation score was 4.57 ± 0.1. For the substance LPTIHICLRSAHTRWFA, the amyloid nucleation score is -0.438 ± 0.87.

In the case of LYYYEQH, the amyloid nucleation score was -0.388 ± 0.54. On to YNVCGELQDNIRCYISLTVL, for which the amyloid nucleation score result was “inactive”. To VWRADMCSHS belongs -0.17 ± 0.53. For the substance SSRNSAAFLNHFDADRGLLP, the amyloid nucleation score is 1.53 ± 0.14. The figure for SCFTTF is -1.54 ± 1.2; for RSFTVCEFMFLFRLWDNSAY it is 0.11 ± 0.9; for VFSVAGASCCRRIGSCWLLR it is 0.687 ± 0.97. To LKSSSCHQTSISHRALFCNL belongs -0.373 ± 1.2; to SMRLGKTIAVLVINEHGMLQ, 2.17 ± 0.11; to YCCDDDGKFAWNECWDDTAR, 0.102 ± 0.21. The entry for YLFMMAIRGAKTLVS is “inactive”. In turn, FNFMFAKDGGSDTFLRFDRV displayed an amyloid nucleation score of 4.83 ± 0.11. As for LEYYLVWYNVYL, the amyloid nucleation score turned out to be 0.534 ± 0.19.

As to IYPCICSRNFDPKLYKVNTR, the amyloid nucleation score amounted to 0.605 ± 0.66. The figure for ILELGGCLVYYRGN is 0.087 ± 0.69; for ITMSYMSAKCVNWVVWACRL it is 0.286 ± 0.31. The figure for QWCVKESAFIYEYRLSGDCR is 0.877 ± 0.32. To YGVNHRMYSKWHSVGAWMCR belongs 1.21 ± 0.66; to FTMKMGYMVAFIW, -0.394 ± 0.25. As for SRYYNILWNKVCRVRDNH, the amyloid nucleation score result was “inactive”.

In turn, KRTLYSSIRF displayed an amyloid nucleation score of 1.74 ± 0.15. To AYAEIYERSEPGKDRHYLFM belongs -0.313 ± 0.74.

On to LFFQSDMFGVFCISYTTGVS, for which the amyloid nucleation score was determined as 0.323 ± 0.32.

In turn, FGWRISILLVPHRLFRGLPQ displayed an amyloid nucleation score of -0.85 ± 1.9. Take WWVNL: the amyloid nucleation score was 0.247 ± 0.3. To RCEGYFSVDVRGYSMLEIPG belongs -0.365 ± 1.3.

The substance LFQCASWM registered an amyloid nucleation score of -0.024 ± 0.29.

In turn, HVNLLNRTLCK returned an amyloid nucleation score of 0.151 ± 0.9. The substance EIVVIASRTASPDFIN came in with an amyloid nucleation score of 1.01 ± 0.74. To AVLHLSDCERNYFTFTVNCG belongs 6.207 ± 0.049.

For RLEADYLTVIESVGHSATGS, the amyloid nucleation score entry is “inactive”. The figure for NSRAGLYVISSSYCRSMLDR is 1.48 ± 0.39; for WSSHYVSLRKVCVCGRRPWS it is 3.46 ± 0.079. The figure for HDIAIMSSVGFSTAHDICSE is 0.26 ± 0.99. To YSCFSECYTKMSHTLSKNNL belongs 2.11 ± 0.32.
